From patent publication US20260098092A1 (CHULALONGKORN UNIVERSITY, published 2026)
Where a chain is given by its changes, count along the chain named. Names and notes keep the numbering of the source.

B1: xCUSB0136 (antibody, human IgG4, V domains shown)
VH: QVQLKESGPGLVAPSQSLSITCTVSGFSLTTYDIIWIRQSPGKGLEWLGVIWTGGDTNYNSAFMSRLSISKDNSKSQIFLKMNSLQTDDTAIYYCVRDWAYWGQGTLVTVST
VL: NIVLTQSPASLAVSLGQRATISCRASESVDNYGNSFIQWYQQKPGQPPKLLIYFASNLQSGVPARFSGSGSRTDFTLTIDPVEADDAATYYCHQNNEDPFTFGSGTKLEIK
notes: Chimeric: mouse variable regions joined to human IgG4/kappa constant regions; also called chimeric CUSB0136; xCUSBO136; not shown: human IgG4 constant region, UniProt P01861; human kappa constant region, UniProt P01834
B2: xCUSB0123 (antibody, human IgG4, V domains shown)
VH: QVQLQQSGPELVRPGESVKISCKGSGYTFTDYVMHWVKQSHAKSLEWIGVITIYNDITNYNQKFKGKATMTIDKSSSTAYMELARLTSEDSAIYYCAREGYDSYWYFDVWGAGTTVTVSS
VL: DVLMTQTPLSLPVSLGDQASISCRSSQTIVHSNGNTYLEWYLQKPGQSPKLLIYKVSNRFSGVPDRFSGSGSGTDFTLKISRVEAEDLGVYYCFQGSHLPYTFGGGTKLEIK
notes: Chimeric: mouse variable regions joined to human IgG4/kappa constant regions; also called chimeric CUSB0123; not shown: human IgG4 constant region, UniProt P01861; human kappa constant region, UniProt P01834
B3: xCUSB0125 (antibody, human IgG4, V domains shown)
VH: DVQLRESGPGLVKPSQSLSLTCTVTGYSITSDYAWNWIRQFPGNKLEWMGYIYYSGTTSYNPSLKSRISITRDTSKNQFFLQLNSVTTEDTATYYCARNYGSAFYYFDYWGQGTTLTVSS
VL: DILMTQSPSSMSVSLGDTVTITCHASQGISSNIGWLQQKPGKSFKGLIYRGTNLEDGVPSRFSGSGSGADYSLTISSLESEDFADYYCVQYAQFPPTFGGGTKLEIK
notes: Chimeric: mouse variable regions joined to human IgG4/kappa constant regions; also called chimeric CUSB0125; not shown: human IgG4 constant region, UniProt P01861; human kappa constant region, UniProt P01834
B4: zCUSB0125.9 (antibody, human IgG4, V domains shown)
VH: QVQLQESGPGLVKPSQTLSLTCTVSGYSITSDYAWNWIRQPPGKGLEWMGYIYYSGTTSYNPSLKSRISITRDTSKNQFSLKLSSVTAADTAVYYCARNYGSAFYYFDYWGQGTTLTVSS
VL: DIQMTQSPSSVSASVGDRVTITCHASQGISSNIGWLQQKPGKAFKGLIYRGTNLEDGVPSRFSGSGSGTDYTLTISSLQPEDFATYYCVQYAQFPPTFGGGTKLEIK
notes: domain: human IgG4 constant region; Humanized; human IgG4 S228P and kappa constant regions; also called CUSB0125-BMVH.3 with CUSB0125-BMVL.3; not shown: human kappa constant region
B5: zCUSB0125.3 (antibody, human IgG4, V domains shown)
VH: B4 VH with M49I, I68V, S69T, T71S, R72V
VL: B4 VL
notes: domain: human IgG4 constant region; Humanized; human IgG4 S228P and kappa constant regions; also called CUSB0125-BMVH.1 with CUSB0125-BMVL.3; not shown: human kappa constant region
B6: zCUSB0125.6 (antibody, human IgG4, V domains shown)
VH: B4 VH with S69T, T71S, V93T
VL: B4 VL
notes: domain: human IgG4 constant region; Humanized; human IgG4 S228P and kappa constant regions; also called CUSB0125-BMVH.2 with CUSB0125-BMVL.3; not shown: human kappa constant region
B7: zCUSB0125.12 (antibody, human IgG4, V domains shown)
VH: B4 VH with P41F, G45K
VL: B4 VL
notes: domain: human IgG4 constant region; Humanized; human IgG4 S228P and kappa constant regions; also called CUSB0125-BMVH.4 with CUSB0125-BMVL.3; not shown: human kappa constant region

Target: T1, human PD-1 on PD-1-expressing Jurkat effector cells (human, UniProt Q15116 25-288)
T1 sequence (Q15116 25-288): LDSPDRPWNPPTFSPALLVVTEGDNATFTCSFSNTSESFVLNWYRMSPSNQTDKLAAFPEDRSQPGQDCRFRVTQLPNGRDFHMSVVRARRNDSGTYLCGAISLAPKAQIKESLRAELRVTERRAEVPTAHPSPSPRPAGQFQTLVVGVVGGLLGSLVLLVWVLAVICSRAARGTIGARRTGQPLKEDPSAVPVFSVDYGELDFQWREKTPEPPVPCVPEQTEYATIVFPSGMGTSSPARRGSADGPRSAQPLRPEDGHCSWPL
Assay: cell-based or functional assay

**Q.** B1 was tested. Which “PD-1/PD-L1 blockade bioassay, IC50” value did it give?
**A.** 0.372 µg/mL

**Q.** Which “PD-1/PD-L1 blockade bioassay, IC50” value does the source give for B2 here?
**A.** 0.957 µg/mL

**Q.** Which “PD-1/PD-L1 blockade bioassay, IC50” value does the source give for B3 here?
**A.** 0.302 µg/mL

Target: T1, human PD-1 on PD-1-expressing Jurkat …
Assay: cell-based or functional assay
Remark: another data set of the same source

**Q.** With B4 as the binder, how does the “PD-1/PD-L1 blockade bioassay, IC50” value read?
**A.** 0.462 µg/mL

**Q.** With B5 as the binder, how does the “PD-1/PD-L1 blockade bioassay, IC50” value read?
**A.** 2.41 µg/mL

**Q.** For B6, which “PD-1/PD-L1 blockade bioassay, IC50” value is on record?
**A.** 0.297 µg/mL

**Q.** Which “PD-1/PD-L1 blockade bioassay, IC50” value does the source give for B7 here?
**A.** 0.312 µg/mL

Target: T1, human PD-1 on PD-1-expressing Jurkat …
Assay: cell-based or functional assay
Remark: another data set of the same source

**Q.** How did the “IC50 (read off the curve)” value turn out when B3 was run?
**A.** ~0.3 µg/mL

Target: T1, human PD-1 on PD-1-expressing Jurkat …
Assay: cell-based or functional assay
Remark: another data set of the same source

**Q.** B1 was tested. Which “IC50 (read off the curve)” value did it give?
**A.** ~0.4 µg/mL

Target: T2, recombinant human PD-1 His-tag protein (R&D Systems) (human, UniProt Q15116 25-167)
T2 construct: Bought reagent; Used for the ELISA (coated) and for SPR (analyte); also called PD-1 protein; human PD-1 protein; not shown: His-tag
T2 sequence (Q15116 25-167 limits assumed): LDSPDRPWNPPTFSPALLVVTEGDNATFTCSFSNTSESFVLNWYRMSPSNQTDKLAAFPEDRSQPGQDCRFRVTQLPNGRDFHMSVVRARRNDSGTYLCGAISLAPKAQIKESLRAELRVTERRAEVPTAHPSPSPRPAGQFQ
Assay: ELISA, PD-1 His-tag coated on plate, anti-human IgG Fc-HRP detection
Method: ELISA technique was used to select hybridoma mini-pools producing anti-PD-1 antibodies using the following procedure. MaxiSorp ELISA plate was coated with PD-1 His-tag (R&D System) in PBS buffer (10 ng/100 μL/well) at 4° C. overnight. […] The culture supernatant of each mini-pool (100 μL) was added to the plate then incubated for 1 hour at 37° C. After washing, the plate was probed with goat anti-mouse IgG Fcγ-HRP (Jackson Immuno Research) diluted 1:8,000 in PBST (100 μL/well) and incubated for 1 hour at 37° C. […] 1 M H₂SO₄ (50 μL/well) was used to stop the reaction. […] Hybridoma mini-pools with absorbance values of more than 1.0 were selected for further screening.
The purified chimeric antibodies were 2-fold serial diluted for eleven rounds starting from […] until reaching the final concentration of 0.977 ng/mL. The PD-1 binding activity of purified chimeric antibodies was evaluated by ELISA following the procedure mentioned in Example 2, while the goat anti-human IgG Fcγ-HRP antibody (Jackson Immuno Research) diluted 1:10.000 in PBST was used to detect chimeric antibodies.

**Q.** With B1 as the binder, how does the EC50 read?
**A.** 0.0154 µg/mL

**Q.** B2 was tested. Which EC50 did it give?
**A.** 0.0353 µg/mL

**Q.** How did the EC50 turn out when B3 was run?
**A.** 0.0201 µg/mL

Target: T2, recombinant human PD-1 His-tag protein …
Assay: SPR, Biacore T200, as in Example 8 (antibody on Protein G chip, PD-1 His-tag injected)
Method: (§1) The Biacore T200 instrument, equipped with a Protein G sensor chip (GE Healthcare), was used to determine the binding kinetics between chimeric anti-PD-1 antibodies and PD-1 protein. Each purified chimeric anti-PD-1 antibody (1 μg/mL) was injected into the chip with a flow rate of 30 μL/min for 60 sec. […] The HBS-EP+buffer (GE Healthcare) was used as a buffer blank and diluent. The association constant (kₒₙ), dissociation constant (koff), and equilibrium constant (KD) values were calculated using Biacore T200 evaluation software (version 3.1) with a 1:1 Langmuir binding model curve fitting.

**Q.** Which results are given for B4?
**A.** Kd: 0.249 nM; koff: 0.000746 s⁻¹; kon: 2.99e+06 M⁻¹ s⁻¹

**Q.** How did the Kd turn out when B5 was run?
**A.** 3.28 nM

**Q.** And the koff?
**A.** 0.00944 s⁻¹

**Q.** What about the kon of the same binder?
**A.** 2.88e+06 M⁻¹ s⁻¹

**Q.** How did the Kd turn out when B6 was run?
**A.** 0.227 nM

**Q.** What about the koff of the same binder?
**A.** 0.000721 s⁻¹

**Q.** And the kon?
**A.** 3.18e+06 M⁻¹ s⁻¹

**Q.** Which results are given for B7?
**A.** Kd: 0.182 nM; koff: 0.000579 s⁻¹; kon: 3.18e+06 M⁻¹ s⁻¹

Target: T2, recombinant human PD-1 His-tag protein …
Assay: SPR, Biacore T200, antibody captured on Protein G chip, PD-1 His-tag injected, single-cycle kinetics, 1:1 model
Method: as §1

**Q.** What does the source list for B1?
**A.** Kd: 0.083 nM; koff: 0.000193 s⁻¹; kon: 2.3e+06 M⁻¹ s⁻¹

**Q.** Which Kd does the source give for B2 here?
**A.** 1.23 nM

**Q.** What about the koff of the same binder?
**A.** 0.000366 s⁻¹

**Q.** And the kon?
**A.** 298000 M⁻¹ s⁻¹

**Q.** For B3, which Kd is on record?
**A.** 0.18 nM

**Q.** What about the koff of the same binder?
**A.** 0.000512 s⁻¹

**Q.** What about the kon of the same binder?
**A.** 2.84e+06 M⁻¹ s⁻¹
